Here are results for two molecules from publication PMC7529888 (Nature, 2020).

Data set [1] addresses PARP2 (UniProt Q9UGN5-2 1-570). Nature of the data set: EMSA.
For data set [2], the target named is PARP2 (human (from the printed UniProt …, UniProt Q9UGN5-2 1-570)). Nature of the data set: cryo-EM structure.

B1: hairpin DNA 5'P (structured_DNA)
DNA: TCGCGGCAGCTGGTGCTGCCGCGA
modifications: 5' phosphate
In the case of B1, in data set [1], the binding result is on record as “binds”.

B2: HPF1 (natural protein)
chain: MVGGGGKRRPGGEGPQCEKTTDVKKSKFCEADVSSDLRKEVENHYKLSLPEDFYHFWKFCEELDPEKPSDSLSASLGLQLVGPYDILAGKHKTKKKSTGLNFNLHWRFYYDPPEFQTIIIGDNKTQYHMGYFRDSPDEFPVYVGINEAKKNCIIVPNGDNVFAAVKLFLTKKLREITDKKKINLLKNIDEKLTEAARELGYSLEQRTVKMKQRDKKVVTKTFHGAGLVVPVDKNDVGYRELPETDADLKRICKTIVEAASDEERLKAFAPIQEMMTFVQFANDECDYGMGLELGMDLFCYGSHYFHKVAGQLLPLAYNLLKRNLFAEIIEEHLANRSQENIDQLAA
In the case of B2, in data set [2], the binding result was “binds”.
